In publication PMC6205948, “Phage-Borne Depolymerases Decrease Klebsiella pneumoniae Resistance to Innate Defense Mechanisms” (Frontiers in Microbiology, 2018):

How the values were obtained:
[1] = target: KP32gp37 (Klebsiella phage KP32) (UniProt D1L2X0); experiment: SEC-MALS; purified protein in solution, native conditions; SEC coupled to a miniDAWN TREOS MALS detector and Optilab rEX; proteins dialyzed against PBS pH 7.4
[2] = target: the molecule itself; experiment: as above

Chain of KP32gp37 (D1L2X0 1-770 limits assumed): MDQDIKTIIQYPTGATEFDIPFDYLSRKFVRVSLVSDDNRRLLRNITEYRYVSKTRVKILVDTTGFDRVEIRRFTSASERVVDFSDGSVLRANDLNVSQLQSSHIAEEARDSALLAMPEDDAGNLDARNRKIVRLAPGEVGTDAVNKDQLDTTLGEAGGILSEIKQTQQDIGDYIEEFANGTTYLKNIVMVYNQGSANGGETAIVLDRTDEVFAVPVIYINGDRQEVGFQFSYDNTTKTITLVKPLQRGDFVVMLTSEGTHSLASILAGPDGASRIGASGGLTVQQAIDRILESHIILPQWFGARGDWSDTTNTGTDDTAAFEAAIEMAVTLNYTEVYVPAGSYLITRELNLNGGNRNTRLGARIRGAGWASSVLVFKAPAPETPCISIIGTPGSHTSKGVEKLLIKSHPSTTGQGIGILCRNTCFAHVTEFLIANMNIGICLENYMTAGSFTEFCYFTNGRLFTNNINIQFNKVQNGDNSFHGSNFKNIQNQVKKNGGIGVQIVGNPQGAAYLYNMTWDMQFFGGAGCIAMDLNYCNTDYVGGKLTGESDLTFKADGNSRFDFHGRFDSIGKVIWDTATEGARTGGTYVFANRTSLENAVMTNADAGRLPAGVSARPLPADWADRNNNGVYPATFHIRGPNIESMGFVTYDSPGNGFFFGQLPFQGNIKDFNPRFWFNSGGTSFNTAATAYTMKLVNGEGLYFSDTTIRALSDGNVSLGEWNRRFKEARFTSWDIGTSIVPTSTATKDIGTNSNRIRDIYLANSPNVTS

Molecule | stoichiometry N [1] | stoichiometry N [2]
KP32gp37 (from UniProt D1L2X0 1-869) (enzyme) | 3 | –
KP32gp38 (enzyme, Klebsiella phage KP32, UniProt D1L2X1 1-576, looked up, open reading frame cloned into pEXP5-CT/TOPO; runs at about 62 kDa on SDS-PAGE; The vector pEXP5-CT/TOPO adds a C-terminal His6 tag (surmised from the vector's name); also called hypothetical protein; K21 depolymerase) MLDNFNQPKGSTIGVLKDGRTIQEAFDSLPRLESFSGSTATDKLRAAITLGVSEVAIGPVEGNGGRPYEFGDVVIPYPLRIVGCGSQGINVTKGTVLKRSAGASFMFHFTGEGQAQRPMGGGLFNINLNGDTATALGDIIKVTQWSYFKANNCAFQNMAGWGIRLKDVMESNISGNLFRRLGGPSGGGILFDDVRSAVTDNVNNLHIEDNTFALMSGPWIGSTANSNPDLIWIVRNKFEFDGTPAAPNTVDSYVLDFQQLSRAFIQDNGFTHFTTERNRYVGVLRVGATAVGTIKFEDNLLFACESAGLIAGGIVVSRGNVNNQGSATTAIKQFTNTSSKLCKLERVINVQSNGNVSVGQQILPDGYINMAELPGNTRLPSEYDADGETTSVLRVPANTQVRQWSVPKMYKDGLTVTKVTVRAKGAAAGAILSLQSGSTVLSTKSIDAGVWKNYVFYVKANQLQETLQLRNTGTADVLADGMVFGKVDYIDWDFAIAPGTLAAGAKYTTPNQSYLDVAGMRVQAVSIPMFDGPTTGLQVWVEATSANGSFVVVMKNDTGSELVTTVTRCRVRAFVS | – | 3
